This assay has as its target T1, RALGAPB (human, UniProt Q86X10 1-1494, limits assumed).
T1 sequence (looked up): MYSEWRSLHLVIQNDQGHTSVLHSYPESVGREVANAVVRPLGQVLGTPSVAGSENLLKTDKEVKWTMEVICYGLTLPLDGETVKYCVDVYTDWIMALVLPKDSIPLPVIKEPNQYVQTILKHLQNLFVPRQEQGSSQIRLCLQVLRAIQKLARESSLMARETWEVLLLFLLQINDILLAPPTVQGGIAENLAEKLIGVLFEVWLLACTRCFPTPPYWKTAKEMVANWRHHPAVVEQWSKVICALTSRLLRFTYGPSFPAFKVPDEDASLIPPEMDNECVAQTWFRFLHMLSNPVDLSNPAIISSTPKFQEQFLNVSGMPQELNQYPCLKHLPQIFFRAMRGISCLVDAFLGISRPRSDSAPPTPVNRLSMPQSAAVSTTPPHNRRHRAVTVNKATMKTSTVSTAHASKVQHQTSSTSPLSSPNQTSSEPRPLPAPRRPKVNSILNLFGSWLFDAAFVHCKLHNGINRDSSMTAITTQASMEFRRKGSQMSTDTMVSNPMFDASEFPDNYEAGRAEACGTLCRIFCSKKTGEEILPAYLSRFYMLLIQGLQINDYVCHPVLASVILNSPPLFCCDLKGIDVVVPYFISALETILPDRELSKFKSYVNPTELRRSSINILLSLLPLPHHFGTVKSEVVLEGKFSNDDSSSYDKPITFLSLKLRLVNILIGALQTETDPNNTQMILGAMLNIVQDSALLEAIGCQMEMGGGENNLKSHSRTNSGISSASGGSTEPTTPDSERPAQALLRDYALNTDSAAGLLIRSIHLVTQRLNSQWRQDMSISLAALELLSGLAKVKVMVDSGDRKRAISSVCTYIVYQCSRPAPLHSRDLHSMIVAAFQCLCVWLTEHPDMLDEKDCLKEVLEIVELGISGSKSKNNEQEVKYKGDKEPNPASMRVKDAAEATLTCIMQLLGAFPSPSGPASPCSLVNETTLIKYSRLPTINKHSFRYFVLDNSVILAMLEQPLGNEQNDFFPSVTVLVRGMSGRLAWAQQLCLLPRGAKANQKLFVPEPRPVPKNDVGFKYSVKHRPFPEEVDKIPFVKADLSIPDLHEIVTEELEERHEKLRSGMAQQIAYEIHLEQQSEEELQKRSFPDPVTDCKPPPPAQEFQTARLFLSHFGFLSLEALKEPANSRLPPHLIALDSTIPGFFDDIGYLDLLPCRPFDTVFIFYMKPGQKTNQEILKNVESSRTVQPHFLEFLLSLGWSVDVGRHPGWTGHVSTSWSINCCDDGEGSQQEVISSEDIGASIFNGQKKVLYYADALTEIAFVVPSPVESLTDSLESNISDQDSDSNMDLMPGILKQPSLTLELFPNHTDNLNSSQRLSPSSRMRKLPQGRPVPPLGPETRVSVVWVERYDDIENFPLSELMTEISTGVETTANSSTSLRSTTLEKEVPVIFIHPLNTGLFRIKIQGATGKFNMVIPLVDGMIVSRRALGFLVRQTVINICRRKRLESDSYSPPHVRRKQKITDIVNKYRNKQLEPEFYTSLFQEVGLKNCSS
Put plainly: IP/MS, LZTR1 R810W-FLAG, U87. The essentials: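 Extracted peptides in 3% acetonitrile/0.1% formic acid ran on a 50 cm C18 column into an Orbitrap Fusion, with MaxQuant identification and spectral counting.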

B1: LZTR1 R810W-FLAG (other, human, UniProt Q8N653 1-840, looked up)
chain: MAGPGSTGGQIGAAALAGGARSKVAPSVDFDHSCSDSVEYLTLNFGPFETVHRWRRLPPCDEFVGARRSKHTVVAYKDAIYVFGGDNGKTMLNDLLRFDVKDCSWCRAFTTGTPPAPRYHHSAVVYGSSMFVFGGYTGDIYSNSNLKNKNDLFEYKFATGQWTEWKIEGRLPVARSAHGATVYSDKLWIFAGYDGNARLNDMWTIGLQDRELTCWEEVAQSGEIPPSCCNFPVAVCRDKMFVFSGQSGAKITNNLFQFEFKDKTWTRIPTEHLLRGSPPPPQRRYGHTMVAFDRHLYVFGGAADNTLPNELHCYDVDFQTWEVVQPSSDSEVGGAEVPERACASEEVPTLTYEERVGFKKSRDVFGLDFGTTSAKQPTQPASELPSGRLFHAAAVISDAMYIFGGTVDNNIRSGEMYRFQFSCYPKCTLHEDYGRLWESRQFCDVEFVLGEKEECVQGHVAIVTARSRWLRRKITQARERLAQKLEQEAAPVPREAPGVAAGGARPPLLHVAIREAEARPFEVLMQFLYTDKIKYPRKGHVEDVLLIMDVYKLALSFQLCRLEQLCRQYIEASVDLQNVLVVCESAARLQLSQLKEHCLNFVVKESHFNQVIMMKEFERLSSPLIVEIVRRKQQPPPRTPLDQPVDIGTSLIQDMKAYLEGAGAEFCDITLLLDGHPRPAHKAILAARSSYFEAMFRSFMPEDGQVNISIGEMVPSRQAFESMLRYIYYGEVNMPPEDSLYLFAAPYYYGFYNNRLQAYCKQNLEMNVTVQNVLQILEAADKTQALDMKRHCLHIIVHQFTKVSKLPTLWSLSQQLLLDIIDSLASHISDKQCAELGADI
notes: Stably expressed in U87 cells by lentivirus; also called LZTR1-FLAG-R810W; LZTR1 RW; not shown: FLAG tag
As for B1, the binding result is “binds”.

Values taken from US20250262210A1 (TRUSTEES OF COLUMBIA UNIVERSITY IN THE CITY OF NEW YORK, published 2025).
